Experimental findings from the supplement of paper PMC10567573 are described below.

B1: RAB40B (parent)
chain: YSLTTSSTHKRSSLRKVKLVRPPQ
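Note: lentivirally expressed fusions sorted by FACS into six bins by GFP to DsRed ratio, PSI derived from sequencing read proportions per bin multiplied by bin number.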

The data set covers variants of B1. The experiment in a line: protein stability index of a GFP-peptide fusion (GPS, HEK-293T) (PSI 1-6); higher = more stable. Conditions: c terminus: a fixed tail appended.
Take YSLTTSSTHKRSSLRKVKLVRCPQ: the protein stability index came to 3.61. To YSLTTSSTHKRSSLRKVKLVRNPQ belongs 3.72. For YSLTTSSTHKRSSLRKVKLVRSPQ the value was 3.13; for YSLTTSSTHKRSSLRKVKLVRLPQ, 2.58; for YSLTTSSTHKRSSLRKVKLVRQPQ, 3.39. To YSLTTSSTHKRSSLRKVKLVRKPQ belongs 3.28; to YSLTTSSTHKRSSLRKVKLVRGPQ, 2.44. On to YSLTTSSTHKRSSLRKVKLVRTPQ, for which the protein stability index was determined as 3.32. With YSLTTSSTHKRSSLRKVKLVRHPQ, the protein stability index is 2.49. To YSLTTSSTHKRSSLRKVKLVRVPQ belongs 2.48; to YSLTTSSTHKRSSLRKVKLVRPPI, 2.22; to YSLTTSSTHKRSSLRKVKLVRPPD, 3.42. On to YSLTTSSTHKRSSLRKVKLVRPPP, for which the protein stability index worked out at 3.21. On to YSLTTSSTHKRSSLRKVKLVRPPN, for which the protein stability index was found to be 2.96. Regarding YSLTTSSTHKRSSLRKVKLVRPPC, the protein stability index is 2.45. For YSLTTSSTHKRSSLRKVKLVRPPW the value was 2.68. Turning to YSLTTSSTHKRSSLRKVKLVRPPY, the protein stability index came out at 3.09. With YSLTTSSTHKRSSLRKVKLVRPPF, the protein stability index came out at 2.53. To YSLTTSSTHKRSSLRKVKLVRPPV belongs 2.31; to YSLTTSSTHKRSSLRKVKLVRPPH, 3.12. On to YSLTTSSTHKRSSLRKVKLVRPPS, for which the protein stability index turned out to be 2.76.

YSLTTSSTHKRSSLRKVKLVRPPM: the protein stability index was 2.49. For YSLTTSSTHKRSSLRKVKLVRPPA the value was 2.53; for YSLTTSSTHKRSSLRKVKLVRPPR, 2.62. In the case of YSLTTSSTHKRSSLRKVKLVRPPK, the protein stability index amounted to 2.75. To YSLTTSSTHKRSSLRKVKLVRPPE belongs 3.06; to YSLTTSSTHKRSSLRKVKLVRPPT, 3; to YSLTTSSTHKRSSLRKVKLVRPPL, 2.86. Turning to YSLTTSSTHKRSSLRKVKLVRPPG, the protein stability index turned out to be 2.82. For YSLTTSSTHKRSSLRKVKLVGPPQ the value was 3.62; for YSLTTSSTHKRSSLRKVKLVLPPQ, 3.61; for YSLTTSSTHKRSSLRKVKLVHPPQ, 2.9. For YSLTTSSTHKRSSLRKVKLVKPPQ the value was 3.55; for YSLTTSSTHKRSSLRKVKLVAPPQ, 3.15.

As for YSLTTSSTHKRSSLRKVKLVIPPQ, the protein stability index came to 2.52. To YSLTTSSTHKRSSLRKVKLVEPPQ belongs 3.41; to YSLTTSSTHKRSSLRKVKLVSPPQ, 3.09; to YSLTTSSTHKRSSLRKVKLVYPPQ, 2.4. For YSLTTSSTHKRSSLRKVKLVQPPQ the value was 2.95; for YSLTTSSTHKRSSLRKVKLVWPPQ, 2.25; for YSLTTSSTHKRSSLRKVKLVNPPQ, 2.92. For YSLTTSSTHKRSSLRKVKLVMPPQ the value was 2.51; for YSLTTSSTHKRSSLRKVKLVTPPQ, 2.76; for YSLTTSSTHKRSSLRKVKLVPPPQ, 2.89. As to YSLTTSSTHKRSSLRKVKLVVPPQ, the protein stability index was found to be 2.53. In the case of YSLTTSSTHKRSSLRKVKLVDPPQ, the protein stability index was 3.19. To YSLTTSSTHKRSSLRKVKLVFPPQ belongs 2.17; to YSLTTSSTHKRSSLRKVKLVCPPQ, 2.91.

For YSLTTSSTHKRSSLRKVKYVRPPQ, the protein stability index worked out at 2.81. For YSLTTSSTHKRSSLRKVKVVRPPQ the value was 3.19.

In the case of YSLTTSSTHKRSSLRKVKPVRPPQ, the protein stability index is 3.63. For YSLTTSSTHKRSSLRKVKQVRPPQ the value was 2.33; for YSLTTSSTHKRSSLRKVKWVRPPQ, 3.15. To YSLTTSSTHKRSSLRKVKRVRPPQ belongs 3.18; to YSLTTSSTHKRSSLRKVKTVRPPQ, 3.25. For YSLTTSSTHKRSSLRKVKSVRPPQ the value was 3.45; for YSLTTSSTHKRSSLRKVKLVRPIQ, 2.82. Regarding YSLTTSSTHKRSSLRKVKLVRPCQ, the protein stability index turned out to be 2.73. For YSLTTSSTHKRSSLRKVKLVRPMQ the value was 2.8; for YSLTTSSTHKRSSLRKVKLVRPHQ, 3.01.

As to YSLTTSSTHKRSSLRKVKLVRPLQ, the protein stability index was found to be 2.3. For YSLTTSSTHKRSSLRKVKLVRPYQ the value was 3.79; for YSLTTSSTHKRSSLRKVKLVRPRQ, 3.33. For YSLTTSSTHKRSSLRKVKLVRPSQ the value was 3.25.

As to YSLTTSSTHKRSSLRKVKLVRPQQ, the protein stability index was found to be 3.08. For YSLTTSSTHKRSSLRKVKLVRPWQ the value was 2.04; for YSLTTSSTHKRSSLRKVKLVRPEQ, 3.1; for YSLTTSSTHKRSSLRKVKLVRPNQ, 2.96. For YSLTTSSTHKRSSLRKVKLVRPDQ the value was 3.2. For YSLTTSSTHKRSSLRKVKLVRPTQ the value was 3.62. In the case of YSLTTSSTHKRSSLRKVKLVRPVQ, the protein stability index came to 3.02. To YSLTTSSTHKRSSLRKVKLVRPGQ belongs 2.69; to YSLTTSSTHKRSSLRKVKLVRPKQ, 3.25; to YSLTTSSTHKRSSLRKVKLVRPAQ, 3.37. To YSLTTSSTHKRSSLRKVKLVRPFQ belongs 2.6; to YSLTTSSTHKRSSLRKVKLLRPPQ, 2.71; to YSLTTSSTHKRSSLRKVKLCRPPQ, 3.25.

Consider YSLTTSSTHKRSSLRKVKLWRPPQ, for which the protein stability index is 2.22. To YSLTTSSTHKRSSLRKVKLERPPQ belongs 3.56; to YSLTTSSTHKRSSLRKVKLQRPPQ, 3.09; to YSLTTSSTHKRSSLRKVKLGRPPQ, 2.71. Take YSLTTSSTHKRSSLRKVKLIRPPQ: the protein stability index stood at 2.48. To YSLTTSSTHKRSSLRKVKLSRPPQ belongs 3.35; to YSLTTSSTHKRSSLRKVKLHRPPQ, 2.92; to YSLTTSSTHKRSSLRKVKLPRPPQ, 3.56. For YSLTTSSTHKRSSLRKVKLMRPPQ the value was 2.79. For YSLTTSSTHKRSSLRKVKLKRPPQ the value was 3.7. On to YSLTTSSTHKRSSLRKVKLYRPPQ, for which the protein stability index amounted to 2.85. For the variant YSLTTSSTHKRSSLRKVKLTRPPQ, the protein stability index was 3.25. To YSLTTSSTHKRSSLRKVKLNRPPQ belongs 2.85. To YSLTTSSTHKRSSLRKVKLDRPPQ belongs 3.66. To YSLTTSSTHKRSSLRKVKLARPPQ belongs 3.54; to YSLTTSSTHKRSSLRKVKLFRPPQ, 2.67. With YSLTTSSTHKRSSLRKVKLRRPPQ, the protein stability index came out at 3.09.
